Molecular target: design 9 G-CSFR(Ig-CRH)E, tag cleaved (human) (UniProt Q99062)
Assay: SPR, WT G-CSF against design 9 G-CSFR(Ig-CRH)E; steady state derived affinity constant

Question: For “WT G-CSF, purified from insect cells, tag cleaved (from UniProt P09919 31-206) (ligand)”, which KD fold change (against WT:WT) is on record?
Answer: 8810 fold

— patent US20240254182A1
